# The supplement of paper PMC10126150
# ± gives the standard deviation of the averaged measurements.
# System: ATP
# Test: switch fluorescence ratio, 500 uM ATP over buffer (Cy3 cluster intensity, sum of 5 cycles each) (fold (ratio)); higher = stronger signal-on switching upon ATP binding; sequences stand for … in TCGTCGGCAGCGTCAGATGTGTATAAGAGACAGTTTTTTTTTTTTTTTTTTTTTTTTT…TC
# Details: aptamer strand: ATP DNA aptamer (quencher-CACCTGGGGGAGTATTGCGGAGGAAGG + anchor), 100 nM annealed; ATP concentration: 500 uM
# Procedure, shortened: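 For every switch-domain sequence, the fluorescence ratio is the mean of per-cluster values, each being summed target-cycle Cy3 intensity over summed buffer-cycle Cy3 intensity. Clusters outside 100-1000 RFU were excluded. On a modified Illumina MiSeq flow-cell, the Cy3-labelled switching-strand clusters were annealed to 100 nM quencher-labelled ATP aptamer, imaged in selection buffer and then after 15 min with 500 uM ATP at 22 °C. Five such cycles were run, with NaOH stripping and re-annealing between them.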
# 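Further: ATP exposure 15 min at 22 °C before imaging.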
sequence,measurement,value
GCGGTTGAGG,switch fluorescence ratio,1.001 ± 0.009
TTTGGGTTGC,switch fluorescence ratio,0.982 ± 0.014
TGTTAGAGGG,switch fluorescence ratio,1.01 ± 0.063
TGCTAACTCG,switch fluorescence ratio,1 ± 0.018
AGGTTAATTT,switch fluorescence ratio,1.01 ± 0.046
TATAAAGTTG,switch fluorescence ratio,1.01 ± 0.062
GGTTCTCAGT,switch fluorescence ratio,0.988 ± 0.0097
TATTATTTGG,switch fluorescence ratio,1 ± 0.034
ACCTTTGTTT,switch fluorescence ratio,1.001 ± 0.0054
TTTTGGGATT,switch fluorescence ratio,1.03 ± 0.06
CTCCGGCTGG,switch fluorescence ratio,1.19 ± 0.14
AAAAAAAATT,switch fluorescence ratio,0.993 ± 0.044
ATATTGTGTG,switch fluorescence ratio,1.01 ± 0.048
TTTATTAAGG,switch fluorescence ratio,1 ± 0.023
CTGCCCGCCC,switch fluorescence ratio,1.3 ± 0.12
GGTTCATACG,switch fluorescence ratio,1.008 ± 0.0041
AAATTCGGTG,switch fluorescence ratio,0.999 ± 0.016
TTCGAACGGG,switch fluorescence ratio,1.01 ± 0.016
CGATGGTTGG,switch fluorescence ratio,1.03 ± 0.07
GGTGGTAAGA,switch fluorescence ratio,0.978 ± 0.074
CAAAACGGGG,switch fluorescence ratio,1.15 ± 0.18
TTACCCTAGG,switch fluorescence ratio,1.14 ± 0.024
CTGGAAGGGT,switch fluorescence ratio,1 ± 0.03
GGAGGGCGTC,switch fluorescence ratio,0.952 ± 0.0048
ATTTTGGGGG,switch fluorescence ratio,0.988 ± 0.021
GTCTTTAGGG,switch fluorescence ratio,0.9755 ± 0.0055
AGGCTGTCAC,switch fluorescence ratio,0.996 ± 0.013
CATGTAGGCA,switch fluorescence ratio,0.99 ± 0.046
GACTAGTGGT,switch fluorescence ratio,1.01 ± 0.035
ATCATTTATT,switch fluorescence ratio,1.01 ± 0.042
TATGGCGGGG,switch fluorescence ratio,1.02 ± 0.03
AAATATGGTG,switch fluorescence ratio,1 ± 0.021
CTTAAGGGCC,switch fluorescence ratio,1.02 ± 0.012
CCGGGGAATC,switch fluorescence ratio,2.19 ± 0.57
GCACTGGTAT,switch fluorescence ratio,1.05 ± 0.024
ACTATTGGGG,switch fluorescence ratio,0.989 ± 0.011
ATGGGTTGGA,switch fluorescence ratio,1.008 ± 0.0088
GTGGTGGCTG,switch fluorescence ratio,0.976 ± 0.048
TTGCTAATAT,switch fluorescence ratio,1.038 ± 0.0093
AACGTGTTGG,switch fluorescence ratio,1.013 ± 0.0015
ATTAGAAAGC,switch fluorescence ratio,0.981 ± 0.039
TCAGGTTAAG,switch fluorescence ratio,0.9954 ± 0.0061
TAAAGTTTGT,switch fluorescence ratio,0.958 ± 0.026
CGGTACGGGG,switch fluorescence ratio,0.979 ± 0.018
CCAGCTTTGC,switch fluorescence ratio,1.02 ± 0.057
ATTATCTGCG,switch fluorescence ratio,1 ± 0.011
AGTTTGTGGG,switch fluorescence ratio,0.984 ± 0.0025
TTTAAAAACC,switch fluorescence ratio,1.01 ± 0.034
ACATCTCAGT,switch fluorescence ratio,1.06 ± 0.059
TGACCGGCTT,switch fluorescence ratio,1.05 ± 0.013
CTCTTAGCTA,switch fluorescence ratio,1.17 ± 0.019
TGGGCATTGG,switch fluorescence ratio,1.01 ± 0.018
CTTTGAGC,switch fluorescence ratio,1 ± 0.064
TGCAGTGGGA,switch fluorescence ratio,1.02 ± 0.016
CGAGAGGAAA,switch fluorescence ratio,0.9804 ± 0.0046
GGGACCGGTG,switch fluorescence ratio,1.03 ± 0.02
TATATATAAA,switch fluorescence ratio,1.09 ± 0.087
ACCTGTATGG,switch fluorescence ratio,1.03 ± 0.044
TCCGAACTCG,switch fluorescence ratio,1.22 ± 0.019
TGCGATAGAA,switch fluorescence ratio,0.994 ± 0.043
ATCATCTGAA,switch fluorescence ratio,0.987 ± 0.016
TTCCTTTAAA,switch fluorescence ratio,1.07 ± 0.065
GGGAACCAAG,switch fluorescence ratio,0.997 ± 0.026
AGGGTGGGTT,switch fluorescence ratio,0.9771 ± 0.005
TATTACCGTT,switch fluorescence ratio,1.006 ± 0.0076
CGCTGAGGTA,switch fluorescence ratio,1 ± 0.03
GCTTTTGAAG,switch fluorescence ratio,0.993 ± 0.019
ATGAAAGTAT,switch fluorescence ratio,1.011 ± 0.0061
GGGCGAAAAA,switch fluorescence ratio,0.987 ± 0.054
ATAGGGTTGG,switch fluorescence ratio,0.996 ± 0.049
GAAGTATTGT,switch fluorescence ratio,0.9951 ± 0.0062
CCATTTTTGG,switch fluorescence ratio,0.992 ± 0.011
TAGTAGCTTT,switch fluorescence ratio,1.2 ± 0.31
TGAGGTGCGA,switch fluorescence ratio,1.01 ± 0.023
AGGATGTTTT,switch fluorescence ratio,0.995 ± 0.039
TTTGTTGCTT,switch fluorescence ratio,0.989 ± 0.012
TTTCATACGG,switch fluorescence ratio,1.008 ± 0.0034
TGGATGGTGG,switch fluorescence ratio,0.9906 ± 0.0024
GGGTTTTTTC,switch fluorescence ratio,0.9798 ± 0.0046
AAATAAGATT,switch fluorescence ratio,1.02 ± 0.018
CAGGGGATTG,switch fluorescence ratio,1.11 ± 0.14
TGGGTAATGT,switch fluorescence ratio,1.01 ± 0.023
AACTAGGTCG,switch fluorescence ratio,0.974 ± 0.058
TCGAAAATCG,switch fluorescence ratio,1 ± 0.049
GTTCCGCCTG,switch fluorescence ratio,1.094 ± 0.0043
CGATGGGTTT,switch fluorescence ratio,0.969 ± 0.0062
CGGGGGTATG,switch fluorescence ratio,0.994 ± 0.034
TCGGACTATA,switch fluorescence ratio,1.06 ± 0.033
ATATGGGCGG,switch fluorescence ratio,0.98 ± 0.016
ATTGTCATGT,switch fluorescence ratio,1.047 ± 0.0062
GGGATTAGGG,switch fluorescence ratio,1.02 ± 0.043
AAGCTACGTG,switch fluorescence ratio,1.05 ± 0.013
TGCACAGGCT,switch fluorescence ratio,1.119 ± 0.0062
GGTTTAAGGG,switch fluorescence ratio,0.972 ± 0.023
CGTTTACCGT,switch fluorescence ratio,0.983 ± 0.019
TTAACGGGAA,switch fluorescence ratio,1 ± 0.024
TTTATGTACG,switch fluorescence ratio,0.985 ± 0.054
GTAGGAGGTA,switch fluorescence ratio,0.9807 ± 0.0039
CCTCTACTGG,switch fluorescence ratio,1.12 ± 0.042
GGGGGAGTCT,switch fluorescence ratio,1.11 ± 0.087
TTTCATGTTT,switch fluorescence ratio,0.9683 ± 0.007
GGGTAAATGT,switch fluorescence ratio,0.9908 ± 0.0024
CATTAAGGCT,switch fluorescence ratio,1.01 ± 0.071
GCAGGTTCAG,switch fluorescence ratio,0.975 ± 0.021
CGGAGGTTTT,switch fluorescence ratio,0.993 ± 0.049
TAGTGCGATT,switch fluorescence ratio,1.02 ± 0.015
TTTTTGTAGT,switch fluorescence ratio,1.01 ± 0.032
TCGGGCTAGC,switch fluorescence ratio,0.986 ± 0.012
GGGTAAATAT,switch fluorescence ratio,0.98 ± 0.014
ATGGATGAGA,switch fluorescence ratio,0.989 ± 0.03
TGGCGGTGAC,switch fluorescence ratio,1.02 ± 0.01
GACGTGTTGG,switch fluorescence ratio,1.01 ± 0.065
AGGGCATCGG,switch fluorescence ratio,1.021 ± 0.0044
TTAATATAGG,switch fluorescence ratio,0.999 ± 0.011
TCGATGATCG,switch fluorescence ratio,0.963 ± 0.046
TACAGGGTTT,switch fluorescence ratio,1.021 ± 0.005
TTATTATTGT,switch fluorescence ratio,0.982 ± 0.037
TAAGCCTGTT,switch fluorescence ratio,1 ± 0.021
TGAGGGCTAG,switch fluorescence ratio,1 ± 0.015
GGGCGAATGG,switch fluorescence ratio,1.02 ± 0.029
CAAAGCGCGG,switch fluorescence ratio,0.997 ± 0.055
TTGGTAGTGG,switch fluorescence ratio,0.977 ± 0.028
TAATTTTATG,switch fluorescence ratio,0.998 ± 0.025
GTGCAATGGC,switch fluorescence ratio,1.57 ± 0.18
GTTTAATGTT,switch fluorescence ratio,1.023 ± 0.0022
AAACATAGGG,switch fluorescence ratio,1.02 ± 0.038
AGGTGGGTTG,switch fluorescence ratio,1.01 ± 0.055
GGGGGCGCCA,switch fluorescence ratio,1.02 ± 0.02
GACAGAATGT,switch fluorescence ratio,0.976 ± 0.023
GTTAAAAAAT,switch fluorescence ratio,1.06 ± 0.17
AAGGTTAGTA,switch fluorescence ratio,0.9924 ± 0.007
ACGGGGGTTG,switch fluorescence ratio,1.03 ± 0.06
GGTAACATCG,switch fluorescence ratio,1.003 ± 0.0066
GGCAATATAG,switch fluorescence ratio,1.141 ± 0.006
TTGGTTGCG,switch fluorescence ratio,1.02 ± 0.026
GGGGCCCCGT,switch fluorescence ratio,1.016 ± 0.0043
CTGTCAAGAT,switch fluorescence ratio,1.02 ± 0.024
TTTTACGTGC,switch fluorescence ratio,1.02 ± 0.05
GGTTTAGGTG,switch fluorescence ratio,1.14 ± 0.059
GCCTTTGTTT,switch fluorescence ratio,0.986 ± 0.02
GGACATTCGC,switch fluorescence ratio,1.04 ± 0.013
TACGGGTTTT,switch fluorescence ratio,1.01 ± 0.039
ATGTGGCCTG,switch fluorescence ratio,0.988 ± 0.056
GGAACGAGAG,switch fluorescence ratio,0.989 ± 0.03
CGGGCTATCC,switch fluorescence ratio,1.03 ± 0.03
GAGGAGCTCG,switch fluorescence ratio,0.9522 ± 0.0045
GGTACCAAAA,switch fluorescence ratio,0.992 ± 0.024
TGGGCTGCGG,switch fluorescence ratio,0.974 ± 0.04
CGATTAAAGT,switch fluorescence ratio,0.997 ± 0.031
ATAGGGTACG,switch fluorescence ratio,1.06 ± 0.022
TTGTGAAGGT,switch fluorescence ratio,1.05 ± 0.044
CATAAGGTCG,switch fluorescence ratio,1.03 ± 0.083
AAACACGACT,switch fluorescence ratio,1.07 ± 0.011
